Key:
[1] = molecular target: T1, GFP-SP1 (GFP fused to specificity protein 1) (UniProt P08047 1-785); assay: co-IP; HeLa cells co-expressing GFP, GFP-KLF4 or GFP-SP1 with DSRED-IPO13; treated with or without 125 uM H2O2 for 1 h before lysis; lysates with or without GTPgammaS (1.7 mM, 20 min on ice); precipitated with GFP-Trap resin; Western blot with anti-GFP and anti-IPO13; conditions: partners not purified
T1 construct: Specificity protein 1 (SP1); plasmid from Jan-Jong Hung (National Cheng Kung University, Taiwan); Construct was a gift; also called GFP-tagged SP1; source: HeLa, transfected, in lysate
T1 sequence (P08047 whole entry, the tested form may be a part): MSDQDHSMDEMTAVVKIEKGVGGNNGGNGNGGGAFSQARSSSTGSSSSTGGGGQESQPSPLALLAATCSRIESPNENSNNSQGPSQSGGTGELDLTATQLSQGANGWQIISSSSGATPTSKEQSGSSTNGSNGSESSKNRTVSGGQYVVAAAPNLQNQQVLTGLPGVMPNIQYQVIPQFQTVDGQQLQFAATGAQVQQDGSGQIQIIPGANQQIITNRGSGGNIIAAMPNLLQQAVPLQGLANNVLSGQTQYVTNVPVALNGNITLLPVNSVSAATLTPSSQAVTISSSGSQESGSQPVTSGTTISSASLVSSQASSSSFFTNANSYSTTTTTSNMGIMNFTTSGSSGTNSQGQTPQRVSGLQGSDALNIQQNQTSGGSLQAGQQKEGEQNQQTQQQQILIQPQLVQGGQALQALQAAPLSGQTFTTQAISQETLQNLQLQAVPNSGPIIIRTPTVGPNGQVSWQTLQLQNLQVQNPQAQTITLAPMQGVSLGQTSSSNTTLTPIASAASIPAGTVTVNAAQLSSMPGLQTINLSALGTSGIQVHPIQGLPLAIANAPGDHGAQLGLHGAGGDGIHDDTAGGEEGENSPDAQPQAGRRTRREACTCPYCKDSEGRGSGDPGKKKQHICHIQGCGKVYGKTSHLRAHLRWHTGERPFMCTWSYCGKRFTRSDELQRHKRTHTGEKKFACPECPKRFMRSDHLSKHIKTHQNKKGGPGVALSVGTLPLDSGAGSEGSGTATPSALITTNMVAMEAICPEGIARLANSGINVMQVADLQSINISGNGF

[2] = molecular target: T2, GFP-KLF4 (eGFP fused to full-length mouse Kruppel like factor 4) (mouse, UniProt Q60793 1-483); assay: as above; conditions: partners not purified
T2 construct: Kruppel like factor 4 (KLF4), mouse, full length; inserted in-frame at BamHI and HindIII of pEGFP-C1, C-terminal to eGFP; also called GFP-tagged KLF4; source: HeLa, transfected (pEGFP-C1 construct), in lysate; not shown: eGFP, N-terminal, kept
T2 sequence (Q60793 whole entry, the tested form may be a part): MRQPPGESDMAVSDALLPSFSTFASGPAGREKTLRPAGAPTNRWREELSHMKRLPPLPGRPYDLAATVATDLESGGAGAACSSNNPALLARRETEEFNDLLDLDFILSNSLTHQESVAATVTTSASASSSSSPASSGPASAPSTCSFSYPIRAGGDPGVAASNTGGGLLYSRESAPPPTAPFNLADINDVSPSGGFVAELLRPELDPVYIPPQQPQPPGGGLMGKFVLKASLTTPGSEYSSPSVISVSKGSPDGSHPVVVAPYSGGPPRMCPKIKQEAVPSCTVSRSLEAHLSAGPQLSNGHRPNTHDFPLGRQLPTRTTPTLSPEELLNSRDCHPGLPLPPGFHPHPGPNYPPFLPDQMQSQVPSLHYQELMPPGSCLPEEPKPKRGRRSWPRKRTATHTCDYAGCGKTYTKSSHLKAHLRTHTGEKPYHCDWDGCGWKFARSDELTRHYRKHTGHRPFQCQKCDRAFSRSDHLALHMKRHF

- fold increase in co-precipitation with GTPgammaS against no addition, H2O2 treated cells [1]: ~2 fold
- fold increase in co-precipitation with GTPgammaS against no addition, H2O2 treated cells [2]: ~2 fold
B1: DSRED-IPO13 (Importin-13 fused to the DsRed2 fluorescent protein) (natural protein, UniProt O94829 1-963, looked up)
chain: MERREEQPGAAGAGAAPALDFTVENVEKALHQLYYDPNIENKNLAQKWLMQAQVSPQAWHFSWQLLQPDKVPEIQYFGASALHIKISRYWSDIPTDQYESLKAQLFTQITRFASGSKIVLTRLCVALASLALSMMPDAWPCAVADMVRLFQAEDSPVDGQGRCLALLELLTVLPEEFQTSRLPQYRKGLVRTSLAVECGAVFPLLEQLLQQPSSPSCVRQKVLKCFSSWVQLEVPLQDCEALIQAAFAALQDSELFDSSVEAIVNAISQPDAQRYVNTLLKLIPLVLGLQEQLRQAVQNGDMETSHGICRIAVALGENHSRALLDQVEHWQSFLALVNMIMFCTGIPGHYPVNETTSSLTLTFWYTLQDDILSFEAEKQAVYQQVYRPVYFQLVDVLLHKAQFPSDEEYGFWSSDEKEQFRIYRVDISDTLMYVYEMLGAELLSNLYDKLGRLLTSSEEPYSWQHTEALLYGFQSIAETIDVNYSDVVPGLIGLIPRISISNVQLADTVMFTIGALSEWLADHPVMINSVLPLVLHALGNPELSVSSVSTLKKICRECKYDLPPYAANIVAVSQDVLMKQIHKTSQCMWLMQALGFLLSALQVEEILKNLHSLISPYIQQLEKLAEEIPNPSNKLAIVHILGLLSNLFTTLDISHHEDDHEGPELRKLPVPQGPNPVVVVLQQVFQLIQKVLSKWLNDAQVVEAVCAIFEKSVKTLLDDFAPMVPQLCEMLGRMYSTIPQASALDLTRQLVHIFAHEPAHFPPIEALFLLVTSVTLTLFQQGPRDHPDIVDSFMQLLAQALKRKPDLFLCERLDVKAVFQCAVLALKFPEAPTVKASCGFFTELLPRCGEVESVGKVVQEDGRMLLIAVLEAIGGQASRSLMDCFADILFALNKHCFSLLSMWIKEALQPPGFPSARLSPEQKDTFSQQILRERVNKRRVKEMVKEFTLLCRGLHGTDYTADY
notes: Importin-13 (IPO13); PCR generated IPO13 insert put into pDsRed2-C1 at EcoRI and SmaI; also called dsRed2-IPO13; DSRED-tagged IPO13; source: HeLa, transfected (pDsRed2-fused IPO13), in lysate

From publication PMC8501021, “Nuclear transporter Importin-13 plays a key role in the oxidative stress transcriptional response” (Nature Communications, 2021)
